The source of these data is US10563220B2, “Compositions and methods for efficient targeting of transgenes” (priority 2015, dated 2020).

Test [1] relates to transgenic F1 hybrid maize expressing APG6 operably linked to PPO H_N10. Description: PPO herbicide pre-emergence injury, maize with APG6-PPO H_N10. Format: in vivo. The conditions noted are these: 20 days after treatment. On the procedure: (§1) Transgenic F1 hybrid maize expressing APG6 operably linked to PPO H_N10 was assessed for tolerance to different seven different PPO herbicides: S-3100, Fomesafen, Acifluorfen, Lactofen, Flumioxazin, Sulfentrazone, and Saflufenacil. Pooled seed representing 5 unique events was planted in pots in a greenhouse along with hybrid maize seed as a negative control.
(§2) To test for pre-emergence herbicide tolerance, PPO herbicides were applied individually at one of two rates with six reps per treatment as follows: S-3100 (80 or 160 g ai/ha), fomesafen (Reflex®, 840 or 1680 g ai/ha), flumioxazin (Valor® SX, 210 or 420 g ai/ha), sulfentrazone (Spartan® 4L, 840 or 1680 g ai/ha), and saflufenacil (Sharpen®, 200 or 400 g ai/ha). Plants were rated for percentage of crop injury at 20 days after treatment, and maize seed was included as a negative control. […] Negative control maize plants had injury ratings ranging from 17.5% to 94.2%, with the exception of Saflufenacil, which is expected since this herbicide is marketed for used in conventional maize plants. Data are presented in Table 15 with standard error indicated as +/−.

Test [2] relates to negative control hybrid maize. Nature of the test: PPO herbicide pre-emergence injury, negative control maize. Format: in vivo. The conditions noted are these: 20 days after treatment. Here is the method: as §1, §2
For test [3], the system named is transgenic Brassica napus plants. Description: Dicamba tolerance in R0 Brassica napus, greenhouse. Conditions: R0 plants with one copy with vector backbone or two copies, tolerant = injury 20% or less, 21 days.
Experimental: Brassica napus variety 65037 Restorer line was used for Agrobacterium-mediated transformation and R0 plants were grown in the greenhouse.
Dicamba tolerance was assessed using R0 plants with one copy of transgene with vector backbone or two copies of transgene. Dicamba tolerance was designated as dicamba injury of 20% or less under greenhouse conditions.
Dicamba tolerance was assessed on R0 plants with a one copy of the transgene. Plants were sprayed in the greenhouse with dicamba (Clarity) at 1 lb ae/acre (2× rate), and dicamba tolerance was determined 14 to 21 days later.
Test [4] concerns transgenic R1 soybean plants. Nature of the test: PPO herbicide testing of R1 soybean (S-3100, greenhouse). Conditions: for Injury V4 stage / Injury R1 stage: ten days after treatment.
Experimental: Regenerated R0 transgenic plantlets were grown in the greenhouse, selfed, and R1 seed was collected. Transgenic R1 plants were sprayed in the greenhouse with one of three herbicide treatments applied at V4 and R1: (1) 5 grams ai/ha S-3100, (2) 10 grams ai/ha S-3100, or (3) 30 grams ai/ha S-3100. Crop injury ratings were assessed at ten days after treatment.
In test [5] the test system is transgenic F1 hybrid maize plants. Description: F1 hybrid maize field trial of dicamba injury and yield. Format: in vivo. Here is the method:
Dicamba tolerance was evaluated in a field trial for the transgenic F1 hybrid plants. The field trial included four treatments at two locations with two replications each. The four treatments were: (1) dicamba (Clarity®) applied at 2 lbs ae/acre (4×) at V2 followed by V4 followed by V8; (2) dicamba applied at 4 lbs at/acre (8×) at V2 followed by V4 followed by V8; (3) dicamba applied at 8 lbs at/acre (16×) at V2 followed by V4 followed by V8; and (4) dicamba applied at 16 lbs at/acre (32×) at V2 followed by V4 followed by V8. Crop injury was rated ten days after treatment and measured as crop injury percent per V-stage (CIPV2, CIPV4, or CIPV8). At the end of the season, grain was harvested and yield measured as bushels/acre. For both CIPV ratings and yield the least significant difference (LSD) at probability of 5% (p=0.05) was calculated.

The subject of test [6] is transgenic Brassica napus plants. Nature of the test: Dicamba tolerance in R1 Brassica napus, greenhouse, three sprays. Type of test: in vivo. The conditions noted are these: dicamba 2 lb ae/acre at planting, 1 lb ae/acre at V3, 1 lb ae/acre at first flower. An excerpt:
Plants were sprayed with 2 lb ae/acre dicamba (4×) on the day of planting, followed by 1 lb ae/acre dicamba (2×) dicamba at V3 stage, and 1 lb ae/acre dicamba (2×) dicamba at first flower (defined as >90% of plants having bolted and about 25% having at least one open flower). Injury ratings were taken seven days after each spray and expressed as percent injury compared to sprayed controls. For plants containing APG6+DMO, there were 9 progeny total from 2 events with dicamba injury ratings of ≤20% at each of the three rating periods. For plants containing RbcS+DMO, there were 77 plants across 16 events with dicamba tolerance of less than 20% at each of the three rating periods.

Test [7] has as its system R0 transgenic cotton plants. Nature of the test: S-3100 tolerance of R0 transgenic cotton, greenhouse. Conditions: 20 g ai/ha S-3100 at V2, three days after treatment.
Experimental: Regenerated R0 transgenic plantlets were grown in the greenhouse, and leaf samples taken from the resulting R0 plants were analyzed by PCR to identify plants containing a single copy of an event. Transgenic single-copy R0 plants, each representing a unique event, were sprayed in the greenhouse with the herbicide treatment 20 g ai/ha of S-3100 applied at V2 stage. Additionally, transgenic multi-copy (≥2 copies/plant) were sprayed in the greenhouse with the herbicide treatment 20 g ai/ha of S-3100 applied at V2 stage. Injury ratings were taken at three days after treatment.
In test [8] the test system is R1 transgenic cotton plants. Nature of the test: R1 cotton greenhouse dicamba injury. The conditions noted are these: dicamba 1120 g ai/ha at V4; rated 9 days after treatment; DMO SEQ ID NO:18.
Text: Ten R1 seeds per event from 10 events for each construct and seed from DP393 cotton was planted to evaluate crop tolerance to post-emergence application of dicamba. Dicamba (Clarity) was applied at the V4 stage at 1120 g ai/ha. Crop injury percent ratings were taken 9 days after the treatment.
Test [9] deals with R1 transgenic soybean plants. Description: R1 soybean greenhouse dicamba injury. The conditions noted are these: dicamba 1120 g ai/ha at V4; rated 10 days after treatment; DMO SEQ ID NO:18.
Text: Transgenic soybean plants were generated with two DNA constructs that were identical except for the APG6 CTP. The first DNA construct had APG6 (SEQ ID NO:1) operably linked to DMO (SEQ ID NO:18). The second DNA construct had the optimized APG6 (SEQ ID NO:2) operably linked to DMO (SEQ ID NO:18). Each DNA construct was used to transform A3555 soybean by Agrobacterium mediated transformation methods. Following transformation, R0 transgenic plants containing a single copy of the transgene were identified by PCR assay. Single-copy R0 plants were grown in greenhouse, and R1 seed was harvested. Ten R1 seeds per event for 4 events generated using each of the two DNA constructs and AG3555 seed was planted for evaluation of crop tolerance to post-emergence dicamba treatment under standard greenhouse growth conditions. Dicamba (Clarity) was applied at the V4 stage at 1120 g ai/ha. Crop injury ratings were taken 10 days after the treatment.
Where [10] appears, read: dicamba 2 lbs ae/acre (4×) at V2 fb V4 fb V8.
Where [11] appears, read: dicamba 4 lbs (8×) at V2 fb V4 fb V8.
[12] abbreviates: dicamba 8 lbs (16×) at V2 fb V4 fb V8.
[13] abbreviates: dicamba 16 lbs (32×) at V2 fb V4 fb V8.

Consider `CS(=O)(=O)NC(=O)c1cc(Oc2ccc(C(F)(F)F)cc2Cl)ccc1[N+](=O)[O-]` [Fomesafen, fomesafen], for which the “% Injury PPO H_N10” value is on record as 4.2% +/− 1.54 in test [1] (840 g ai/ha) and 5.8% +/− 0.83 in [1] (1680 g ai/ha). Further, the “% Injury negative control” value in test [2] (840 g ai/ha) is given as 75.8% +/− 5.83; in test [2] (1680 g ai/ha), 94.2% +/− 1.54.
As to `C#CCN1C(=O)COc2cc(F)c(N3C(=O)C4=C(CCCC4)C3=O)cc21` [Flumioxazin, flumioxazin], the “% Injury PPO H_N10” value in [1] (210 g ai/ha) came to 1.7% +/− 1.05; in test [1] (420 g ai/ha) it was 2.5% +/− 1.71. In addition, the “% Injury negative control” value turned out to be 30% +/− 6.32 in test [2] (210 g ai/ha) and 60.8% +/− 6.38 in test [2] (420 g ai/ha).
As to `CC(C)N(C)S(=O)(=O)NC(=O)c1cc(-n2c(=O)cc(C(F)(F)F)n(C)c2=O)c(F)cc1Cl` [Saflufenacil, saflufenacil], the figures for the “% Injury PPO H_N10” value in test [1] (200 g ai/ha) and in [1] (400 g ai/ha) were 0% +/− 0 and 0.8% +/− 0.83, respectively. In addition, the results for the “% Injury negative control” value in test [2] (200 g ai/ha) and in test [2] (400 g ai/ha) were 0% +/− 0 and 0.8% +/− 0.83, respectively.
For `Cc1nn(-c2cc(NS(C)(=O)=O)c(Cl)cc2Cl)c(=O)n1C(F)F` [Sulfentrazone, sulfentrazone], the “% Injury PPO H_N10” value in [1] (840 g ai/ha) and in test [1] (1680 g ai/ha) was 0% +/− 0 in each case. Further, the “% Injury negative control” value in test [2] (840 g ai/ha) is on record as 17.5% +/− 11.6; in test [2] (1680 g ai/ha), 20% +/− 11.11.
Consider `CCOC(=O)COc1ncccc1Oc1cc(-n2c(=O)cc(C(F)(F)F)n(C)c2=O)c(F)cc1Cl` [S-3100, ethyl [3-2-chloro-4-fluoro-5-(1-methyl-6-trifluoromethyl-2,4-dioxo-1,2,3,4-tetrahydropyrimidin-3-yl)phenoxy]-2-pyridyloxyl acetate], for which the “% Injury PPO H_N10” value in test [1] (80 g ai/ha, +/− standard error) amounted to 3.3% +/− 1.67; in test [1] (160 g ai/ha) it was 4.2% +/− 1.54. Further, the “% Injury negative control” value was determined as 19.2% +/− 2.39 in [2] (80 g ai/ha, +/− standard error) and 20.8% +/− 8.31 in [2] (160 g ai/ha).
In the case of “RbcS (SEQ ID NO: 5): Ps.RbcS-3C chloroplast transit peptide, SEQ ID NO:5 (MASMISSSAVTTVSRASRGQSAAMAPFGGLKSMTGFPVRKVNTDITSITSNGGRVKC; listed as Pisum sativum) [reference compound]”, in test [3] (dicamba 1 lb ae/acre), the “2X Tolerant events” value is 8/9. Also, in test [3] (dicamba 2 lb ae/acre), the “4X Tolerant events” value is recorded as 7/7.

B1: 12G088600TP + H_N10: 12G088600TP CTP operably linked to PPO H_N10, construct for soybean (protein, listed as Gossypium raimondii, listed as Escherichia coli)
chain: MLNIAPSCVLASGISKPVTKMASTENKDDHSSAKRMKTLILFSTRDGQTREIASYLASELKELGIQADVANVHRIEEPQWENYDRVVIGASIRYGHYHSAFQEFVKKHATRLNSMPSAFYSVNLVARKPEKRTPQTNSYARKFLMNSQWRPDRCAVIAGALRYPRYRWYDRFMIKLIMKMSGGETDTRKEVVYTDWEQVANFAREIAHLTDKPTLK
Turning to B1, in test [4] (S-3100 5, 10 and 30 g ai/ha applied at V4), the “survival for rating at the R1 stage” value is reported as “did not survive”. Further, the results for the “Injury V4 stage” value in test [4] (S-3100 5 g/ha), in test [4] (S-3100 10 g/ha) and in [4] (S-3100 30 g/ha) were 82.7%, 92.7% and 98.2%, respectively.

B2: APG6-DMO: APG6 CTP operably linked to dicamba monooxygenase (SEQ ID NO:20 in Brassica, SEQ ID NO:18 in maize) (protein)
chain: MLTFVRNAWYVAALPEELSEKPLGRTILDTPLALYRQPDGVVAALLDICPHRFAPLSDGILVNGHLQCPYHGLEFDGGGQCVHNPHGNGARPASLNVRSFPVVERDALIWIWPGDPALADPGAIPDFGCRVDPAYRTVGGYGHVDCNYKLLVDNLMDLGHAQYVHRANAQTDAFDRLEREVIVGDGEIQALMKIPGGTPSVLMAKFLRGANTPVDAWNDIRWNKVSAMLNFIAVAPEGTPKEQSIHSRGTHILTPETEASCHYFFGSSRNFGIDDPEMDGVLRSWQAQALVKEDKVVVEAIERRRAYVEANGIRPAMLSCDEAAVRVSREIEKLEQLEAA
Regarding B2, the “CIPV4 (crop injury percent)” value in [5] (setting [10]) is given as 2%; in test [5] (setting [11]) it was 2%; in [5] (setting [12]) it was 4%; in [5] (setting [13]), 5.75%. Besides, the “CIPV8 (crop injury percent)” value in test [5] (setting [10]) was determined as 3%; in test [5] (setting [11]), 7.5%; in test [5] (setting [12]), 11.25%; in test [5] (setting [13]) it was 17.5%. Moreover, the Yield stood at 231.99 bu/ac in test [5] (setting [10]), 230.44 bu/ac in test [5] (setting [11]), 242.37 bu/ac in test [5] (setting [12]) and 212.34 bu/ac in test [5] (setting [13]). Besides, the “CIPV2 (crop injury percent)” value worked out at 0.75% in test [5] (dicamba 2 lbs ae/acre (4×) at V2 fb V4 fb V8, rated ten days after treatment); 1.5% in test [5] (setting [11]); 1.5% in test [5] (setting [12]); 2% in test [5] (setting [13]). For the same molecule, in test [6], the “events giving plants with dicamba injury of 20% or less at each of three rating periods” value was 2. Also, the “plants (progeny) with dicamba injury of 20% or less at each of three rating periods” value in [6] (rated 7 days after each spray) amounted to 9.

B3: APG6 + H_N10: APG6 CTP operably linked to PPO H_N10, construct for soybean and cotton (protein, listed as Arabidopsis thalinana, listed as Escherichia coli)
chain: MATATTTATAAFSGVVSVGTETRRIYSFSHLQPSAAFPAKPSSFKSLKLKQSARLTRRLDHRPFVVRCMKTLILFSTRDGQTREIASYLASELKELGIQADVANVHRIEEPQWENYDRVVIGASIRYGHYHSAFQEFVKKHATRLNSMPSAFYSVNLVARKPEKRTPQTNSYARKFLMNSQWRPDRCAVIAGALRYPRYRWYDRFMIKLIMKMSGGETDTRKEVVYTDWEQVANFAREIAHLTDKPTLK
As to B3, the “Injury R1 stage” value is 3% in test [4] (S-3100 5 g/ha), 6.5% in [4] (S-3100 10 g/ha) and 15.7% in [4] (S-3100 30 g/ha). In addition, the “Injury V4 stage” value was 4.2% in [4] (S-3100 5 g/ha), 7.8% in test [4] (S-3100 10 g/ha) and 9.4% in test [4] (S-3100 30 g/ha). Moreover, the figures for the average injury in [7] (14 multi-copy R0 cotton plants) and in test [7] (21 single-copy R0 cotton plants) were 10.4% and 26.7%, respectively.

B4: Optimized APG6: amino-terminal optimized variant of the APG6 CTP, SEQ ID NO:2 (protein)
chain: MASSTTTATAAFSGVVSVGTETRRIYSFSHLQPSAAFPAKPSSFKSLKLKQSARLTRRLDHRPFVVRC
In the case of B4, the “dicamba % Injury, V4 stage” value in test [8] was determined as 2.2%. In addition, in test [9], the “Dicamba Injury, V4 stage” value worked out at 2.7%.
